Test results as given in US20210077638A1.

Tests used:
[1] = target: human MET on EBC-1, NCI-H441 and NCI-H358 cells (human) (UniProt P08581); test: saturation radioligand binding on EBC-1 cells, 4 C, single-site fit, n=4
[2] = target: human MET on EBC-1, NCI-H441 and NCI-H358 cells (human) (UniProt P08581); test: saturation radioligand binding on NCI-H358 cells, 4 C, single-site fit, n=2
[3] = target: human MET on EBC-1, NCI-H441 and NCI-H358 cells (human) (UniProt P08581); test: saturation radioligand binding on NCI-H441 cells, 4 C, single-site fit, n=4
[4] = target: human MET on EBC-1, NCI-H441 and NCI-H358 cells (human) (UniProt P08581); test: saturation radioligand binding (antibody binding capacity) assay with 89Zr-DFO-Comp1 on EBC-1 cells, 4 C, 45 min, gamma counting; x axis is total antibody dosed, not free
[5] = target: human MET on EBC-1, NCI-H441 and NCI-H358 cells (human) (UniProt P08581); test: saturation radioligand binding (antibody binding capacity) assay with 89Zr-DFO-Comp1 on NCI-H441 cells, 4 C, 45 min, gamma counting; x axis is total antibody dosed, not free

Chain of human MET on EBC-1, NCI-H441 and NCI-H358 cells (human) (P08581 25-1390): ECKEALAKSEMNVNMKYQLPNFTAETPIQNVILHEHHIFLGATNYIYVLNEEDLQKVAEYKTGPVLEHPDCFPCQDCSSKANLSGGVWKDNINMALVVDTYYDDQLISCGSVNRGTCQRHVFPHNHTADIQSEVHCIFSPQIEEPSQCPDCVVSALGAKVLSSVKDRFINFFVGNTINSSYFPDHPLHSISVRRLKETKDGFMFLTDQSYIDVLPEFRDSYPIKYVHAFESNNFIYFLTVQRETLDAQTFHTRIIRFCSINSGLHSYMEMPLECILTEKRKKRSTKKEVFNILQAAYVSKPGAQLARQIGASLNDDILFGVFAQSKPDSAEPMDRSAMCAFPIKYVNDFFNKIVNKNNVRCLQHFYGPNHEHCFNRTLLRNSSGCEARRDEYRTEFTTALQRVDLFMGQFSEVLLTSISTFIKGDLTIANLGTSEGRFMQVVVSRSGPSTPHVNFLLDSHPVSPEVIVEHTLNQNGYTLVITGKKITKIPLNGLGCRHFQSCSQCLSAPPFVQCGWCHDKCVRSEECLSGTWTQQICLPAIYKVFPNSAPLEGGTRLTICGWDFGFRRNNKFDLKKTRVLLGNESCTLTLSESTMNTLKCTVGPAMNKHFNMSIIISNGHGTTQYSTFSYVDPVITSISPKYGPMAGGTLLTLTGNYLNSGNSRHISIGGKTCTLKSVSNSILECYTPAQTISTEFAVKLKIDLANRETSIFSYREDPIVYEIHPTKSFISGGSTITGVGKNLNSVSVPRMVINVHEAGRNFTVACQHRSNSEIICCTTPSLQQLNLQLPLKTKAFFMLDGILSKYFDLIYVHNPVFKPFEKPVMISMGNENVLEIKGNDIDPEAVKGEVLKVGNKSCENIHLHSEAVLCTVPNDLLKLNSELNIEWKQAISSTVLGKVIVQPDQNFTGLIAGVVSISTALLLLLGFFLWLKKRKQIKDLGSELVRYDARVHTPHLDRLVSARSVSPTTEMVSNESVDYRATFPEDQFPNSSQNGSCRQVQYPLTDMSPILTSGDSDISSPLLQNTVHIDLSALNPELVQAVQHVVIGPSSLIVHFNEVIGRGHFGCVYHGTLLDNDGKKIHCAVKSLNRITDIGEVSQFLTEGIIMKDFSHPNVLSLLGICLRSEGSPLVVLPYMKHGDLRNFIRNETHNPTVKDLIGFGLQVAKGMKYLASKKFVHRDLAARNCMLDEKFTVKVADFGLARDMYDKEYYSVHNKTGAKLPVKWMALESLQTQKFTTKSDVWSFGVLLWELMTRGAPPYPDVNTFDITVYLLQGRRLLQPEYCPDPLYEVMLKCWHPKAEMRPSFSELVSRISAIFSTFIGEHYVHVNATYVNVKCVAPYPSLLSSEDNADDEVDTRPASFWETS

B1: 89Zr-DFO-anti-Met single-arm comparator antibody (Comp1; Onartuzumab) (antibody, INN chains, looked up, V domains shown)
VH: EVQLVESGGGLVQPGGSLRLSCAASGYTFTSYWLHWVRQAPGKGLEWVGMIDPSNSDTRFNPNFKDRFTISADTSKNTAYLQMNSLRAEDTAVYYCATYRSYVTPLDYWGQGTLVTVSS
VL: DIQMTQSPSSLSASVGDRVTITCKSSQSLLYTSSQKNYLAWYQQKPGKAPKLLIYWASTRESGVPSRFSGSGSGTDFTLTISSLQPEDFATYYCQQYYAYPWTFGQGTKVEIK
modifications: one-armed monovalent 89Zr-DFO label
An ABC (antibody binding capacity) [1] of 250000 per cell, an ABC (antibody binding capacity) [2] of 21000 per cell and an ABC (antibody binding capacity) [3] of 62000 per cell were found for B1 in this work. For the same binder, the EC50 (read off the curve) [4] was 4 nM and the EC50 (read off the curve) [5] was 3 nM.
